Molecular target: T1, RpoN (sigma-54) (Vibrio parahaemolyticus RIMD2210633) (UniProt Q87LE2)
T1 sequence: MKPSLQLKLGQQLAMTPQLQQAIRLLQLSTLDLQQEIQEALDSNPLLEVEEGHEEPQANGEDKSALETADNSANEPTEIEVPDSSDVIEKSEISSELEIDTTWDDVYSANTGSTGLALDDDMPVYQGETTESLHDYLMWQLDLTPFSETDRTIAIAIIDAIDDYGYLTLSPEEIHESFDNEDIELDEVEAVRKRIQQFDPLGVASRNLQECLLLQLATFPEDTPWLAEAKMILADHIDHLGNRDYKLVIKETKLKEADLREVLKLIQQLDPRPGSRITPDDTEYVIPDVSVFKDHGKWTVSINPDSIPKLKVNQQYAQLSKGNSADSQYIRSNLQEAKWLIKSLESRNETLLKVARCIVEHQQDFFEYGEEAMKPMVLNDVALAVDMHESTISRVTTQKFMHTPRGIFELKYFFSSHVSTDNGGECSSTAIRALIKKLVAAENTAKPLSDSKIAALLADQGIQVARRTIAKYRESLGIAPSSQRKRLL
Assay: EMSA
Details: EMSA: 20 µl with 10 ng FAM probe, 4 µl EMSA buffer (10 mM NaCl, 0.1 mM DTT, 0.1 mM EDTA, 10 mM Tris pH 7.4), 1 µl poly-dIdC, 25 °C 0.5 h, 6% native PAGE

Question: With “TGCCTGCAGGTCGACGATGAGCTGCTGATATGCTGGGTATGCGCCGTACAACGTTGGTTGAGAAAATGCGCAAGTATAATTTGCAGCGTTAGATCGAGCTTCAGTTCAATCACAAAAGTTATCTTTTCTGACATTAAAATCAGACATTTCTCGGTGTCAACTTATTGTCGATAACATAACGTCATGATAAATATAAAAATAGCTTGGTACGCTAATTGCTTACCAAGCTATTTTACTTTTTAGTGGCGATATTTCGACAGGCAGTGA (double strand) [flaL promoter]” as the sequence, how does the binding read?
Answer: no binding

Question: Which binding does the source give for “TGCCTGCAGGTCGACGATGTGGAATGTAATGGCCGACGCAAAGAAATGGCAGAGAAGTTGGGCATAAGCCCGCGTACTCTGCGCTACAAACTTGCCAAAATGCGTGACGCGGGTATAGATATTCCGAGTTAGGTTTCACACGCGTAGCCATAAGACAAAAGTGTGAGTAAACTATACAGCTGGCGTCTTGTCAATAATTAGTTTAAATAGATAGTCAAACTTTTGGCTCAGAGGTGATA (double strand) [ΔfliE promoter (RpoN site deleted)]” here?
Answer: no binding

Question: “TGCCTGCAGGTCGACGATGTCCTGTCGAAAGAATTCCTAATAACAGTATCCACTTTGAGGAAATTAGAGTTTTCCCCCTAATTTTTTTGCTTTCCGTAAACCGGAAGTTTGGTTTCCACTCTTGTTTGTAAGTCATTGATAAATATAAATAAAATTTATGGCACGTATCTTGTTTGTATCTTGGCGTATTCGAGCCGACTGTAAGGAAAGATGCATGGCGATCACATTTGAAAATGCTTTAGGTGTACATCCAG (double strand) [flgB2 promoter]” was tested. Which binding did it give?
Answer: binds

Question: For “TGCCTGCAGGTCGACGATTCTGTAAATAATAATTGAGAGTTGCTTCATAATAACTATTATTAGTTATAAATATCGCTTAATTTAAATCTAATTTAAAGATATAAAGGAGCGTATTTAAAATGAAGTTTTTGATACATCAATCATTAATTATCATTATTCAGATAATTTAATTAATACGAAATATGTCAATTAATAATGCTCTAGGAGATTAGC (double strand) [hcp2 promoter]”, which binding is on record?
Answer: binds

Question: How did the binding turn out when “GTGCCTTGTCAAAAGATATAGCCATGTTTGCCTCTACAATTAAGAACTGACCGTTATTAATAACTAAAAAACCGGAAACGCTAAAACACCTATCAGCTATTGACGTTTTAGATTGCAATAAGCAAGCCAAAGTAACTGGAATGTCGTATCACTTCGCTTACTTGAATAAAGATACACCCTGCAGAGGGAGCAGGGCAAAGTCCGACAACAGATTAGCGAGGGGAAACTCGAAATCTCATCTCATATAGACAAAATCGTCGACCTGCAGGCA (double strand) [ΔflgB promoter (RpoN site deleted)]” was run?
Answer: no binding

Question: Which binding does the source give for “TGCCTGCAGGTCGACGATGTGGAATGTAATGGCCGACGCAAAGAAATGGCAGAGAAGTTGGGCATAAGCCCGCGTACTCTGCGCTACAAACTTGCCAAAATGCGTGACGCGGGTATAGATATTCCGAGTTAGGTTTCACACGCGTAGCCATAAGACAAAAGTGTGAGTAAACTATACAGCTGGCGTCTTATGGCACATAAATTGCTGTGTCAATAATTAGTTTAAATAGATAGTCAAACTTTTGGCTCAGAGGTGATA (double strand) [fliE promoter]” here?
Answer: binds

Question: How did the binding turn out when “TGCCTGCAGGTCGACGATCTGCAAGTGAAGCAGAAAATCGAAAGTATGTGACCTTTTGGGGTTGCCGCGTACGCGAATCATTGAGGCTTGCCATCGTGCAAGCCTTTATTTTACCTGAATTTACTACTCTAAATCCCACTTGGCACATCTTTTGCTTTTACTTGTCTAGGTGATCGGTATTTACCGATCTTATTTCGTTTTTGGGGGCAGGTATGGCGTCAGATCTTCTG (double strand) [flgK promoter]” was run?
Answer: no binding

Question: Which binding does the source give for “TGCCTGCAGGTCGACGATATCTTAATTCGCACCACTTTAGTGCAGACGTAGATCATTTTGGTGCAATCATTTGCACCAAACTAGCATCTAAAAACACAATTCATTGAAATTAATGGAATATTTTTTTTGGCACGGTTTTGGCTTTAGTAAACACAGCATCGATTAATGAAAAGTCAAAAAGATTAATCAATGCCGGGTTCATGAATATTTCATAAGTCGAGCTTTTACCGCTTATTAACACTGGAGGTTATCCAAG (double strand) [VP0121 promoter]” here?
Answer: binds

Question: “TGCCTGCAGGTCGACGATGATATTTTATTGGCATGACATTTGCTATTTGTTGCTCAATACTAATCTGGTTGAAGTTAGCACGGACGCACTGCGTAGTATTCATCGCCTATAGATGGCGGAATAAGAATGCTCATTGATAAGTTAATCAGCAGAATCTCCGGCGCTAACTACACTAAGAGATGGAAAAGACTATCCATGTTCATAAATGGAATTGAGC (double strand) [VP1510 promoter]” was tested. Which binding did it give?
Answer: no binding

Question: With “TTTTGGACCATCCGTCAGTAAATCAAACCCTTCTGGATGTATCAACTGCAGCGGTAACACTTGCGCCAATTGCGCCAATTTTTGCCCAGATTGACCGCCTATTTTAACCTCTGTCGAGCCATCGCGCTGCTTATTAATGCCGATAGGTAGCTCAAATTGATCCGAGTTCAAAAAACGACCATGAACAAACAGTTCATCACACTCATTTTGAATCACACGACCAGTGAGAGAGCTTTTGAATGAGCGACCATGCCCGAGTAAATAAATCGCTTCTAGGACAATCGTCGACCTGCAGGCA (double strand) [gyrB promoter]” as the sequence, how does the binding read?
Answer: no binding

Question: “TGCCTGCAGGTCGACGATTTTTGGACTCAACGTAACATTTTTCAATTTTGCCTCTCGTCACATCGCGTGAGTATCGAGTACAAAAATAAAATTTAATGTTCACCACATCCTTGTCGCCTATTGGATTTAGAACATGATGATGAGGACCACAGC (double strand) [flgM promoter]” was tested. Which binding did it give?
Answer: no binding

Question: Which binding does the source give for “TGCCTGCAGGTCGACGATCCTTGTTTTATCCCATGGTCAGCGGGCGCGAAGGCGGCACCGGACTTGGGTTGTCCATCTCACAAAATTTGATCGACCAGCACAACGGAAAAATCGACGTTGAAAGCTGGCCTGGCCACACCACTTTTACAATTTATTTGCCGATTTGACCTCACGAATGGATTTCGTTGAGCGCCAATTTACGGTTTTTGCTGCAAGGATTAGTAC (double strand) [VP0118 promoter]” here?
Answer: no binding

Question: “TGCCTGCAGGTCGACGATTCTCTTTGCCTTAATCTTATGCCGATCAAAGCACATCGGAAACTAACGCTAAAACGGTAGCAAACCCCAACTTAGTGGAATGCAAGTCACTAAAAATCATCAATTTTGATCTTTTTTAGAAAATTTTTAATTTTCAAATTAATCATTAGTGGCAAGCGACCGCCTCTAGTTAGTGACTAGGGAATATCCCAAGGCCTGAAAGAAATAGTGATAAACTAAGGAGACTAAG (double strand) [lafA promoter]” was tested. Which binding did it give?
Answer: binds

Question: Which binding does the source give for “TGCCTGCAGGTCGACGATCTTGGCTTGATAACATCATGACATTCATCTGATGCTTAGCCTGAAAACACCTCAGTTCAGGCTAAGCATGCTTTGATCTCTGGTTTGCCGCTGTTGCCGCCACATGGATCAAAATCTTGCCTCCCTTTGCAGTTTTTTTTCATTGAATATCCTTCTTGATTGCCTTTAATCTCATTCAAGTTTTTGATAAATAAGTTTATTTTTATTTTGGCATAACTATTGCTTTTACTCCGGAAGTACAGAGACTTTTTTGGAGTAA (double strand) [flgF promoter]” here?
Answer: no binding

Question: How did the binding turn out when “TGCCTGCAGGTCGACGATCGCCGGAACATCGTCATTAATCGTACAAAAAGCAAAATTAAGAAAAATATAAAACAATCAATGGATTGTGCTGTTATTTAGCTTTGAGTCATTATTTTGGCGTTGATTTTGGTACATAGATTGCTTAAGTCGACTAATTATCAACTATACCTAAACTTTTAGGCGAAAGTGGTCGCGTATAAACATTAGACATACGTATTAAAGTGCGTATTCGCGTGACGCTTCAATTCGATTGAGATACCTCGCAGT (double strand) [flhA promoter]” was run?
Answer: no binding

Question: Which binding does the source give for “TGCCTGCAGGTCGACGATTTAATCAACACGTCACATTCCTAAAATGAATTAAATATTTTCAGCTTTTTAGTCGCCTTGTCTTATAGGGAAACACTAGATGTTTTCGAGAGGAAGGCGGAACACATAAGGTGGAAAATACACTTCCTCTCAAATTTAAATAGTATCGCAAGTCAATGTTTTAAAAGAATATTCAAGTTAGGCACGTATCTTGCGATAAGACATACTTTCAAGGCATAGAGTTACGCCAATTACCAATGAGAGAGGGAGTAAGCTC (double strand) [lafB promoter]” here?
Answer: no binding

Source: article PMC9817140
